This assay deals with preformed IL-17RA-IL-17A complex (IL-17A captured by immobilised IL-17RA) (human) (UniProt Q16552). Nature of the assay: SPR, second receptor injected over IL-17A captured on immobilised IL-17RA. On the technique in general: SPR reads the build-up and loss of mass on a sensor chip optically.

One substance from patent US20140105855A1 can be followed below.

Broadly, the Kd is the concentration at which binding is half-saturated. The low end stands for tighter binding, the high end for weaker binding.

preformed IL-17RA-IL-17A complex (IL-17A captured by immobilised IL-17RA) (human), sequence (Q16552 other isoform, or with tags, fused parts or gaps): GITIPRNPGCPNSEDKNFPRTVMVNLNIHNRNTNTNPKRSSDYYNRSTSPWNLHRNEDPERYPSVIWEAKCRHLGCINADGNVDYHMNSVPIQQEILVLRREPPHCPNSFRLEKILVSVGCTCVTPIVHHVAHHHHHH

“IL-17RA extracellular domain (ECD) (receptor)”: the Kd amounted to 3.1 µM.
